Where a chain is given by its changes, count along the chain named.
T1: Mouse cKIT ECD, C-terminal 6x His (Sino Biological Inc, Catalog number 50530-M08H) (mouse, UniProt P05532 25-527)
T1 construct: extracellular domain
T1 sequence: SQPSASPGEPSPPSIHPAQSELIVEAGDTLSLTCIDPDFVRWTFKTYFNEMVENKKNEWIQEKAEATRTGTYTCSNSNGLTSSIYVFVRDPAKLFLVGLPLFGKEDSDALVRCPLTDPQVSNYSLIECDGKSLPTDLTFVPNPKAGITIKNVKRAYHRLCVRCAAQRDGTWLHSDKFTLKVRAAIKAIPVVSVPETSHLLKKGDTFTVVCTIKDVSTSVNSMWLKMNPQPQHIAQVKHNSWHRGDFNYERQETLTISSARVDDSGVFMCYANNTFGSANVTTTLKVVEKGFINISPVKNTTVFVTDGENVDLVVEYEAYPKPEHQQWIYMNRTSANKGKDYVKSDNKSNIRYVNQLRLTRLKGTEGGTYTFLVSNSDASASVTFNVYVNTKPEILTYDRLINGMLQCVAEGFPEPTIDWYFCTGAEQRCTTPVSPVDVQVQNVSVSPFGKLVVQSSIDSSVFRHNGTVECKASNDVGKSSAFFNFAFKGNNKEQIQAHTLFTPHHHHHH

T2: Rat cKIT D1-5, C-terminal mFc (rat)
T2 construct: also called rat cKIT-mFc
T2 chain: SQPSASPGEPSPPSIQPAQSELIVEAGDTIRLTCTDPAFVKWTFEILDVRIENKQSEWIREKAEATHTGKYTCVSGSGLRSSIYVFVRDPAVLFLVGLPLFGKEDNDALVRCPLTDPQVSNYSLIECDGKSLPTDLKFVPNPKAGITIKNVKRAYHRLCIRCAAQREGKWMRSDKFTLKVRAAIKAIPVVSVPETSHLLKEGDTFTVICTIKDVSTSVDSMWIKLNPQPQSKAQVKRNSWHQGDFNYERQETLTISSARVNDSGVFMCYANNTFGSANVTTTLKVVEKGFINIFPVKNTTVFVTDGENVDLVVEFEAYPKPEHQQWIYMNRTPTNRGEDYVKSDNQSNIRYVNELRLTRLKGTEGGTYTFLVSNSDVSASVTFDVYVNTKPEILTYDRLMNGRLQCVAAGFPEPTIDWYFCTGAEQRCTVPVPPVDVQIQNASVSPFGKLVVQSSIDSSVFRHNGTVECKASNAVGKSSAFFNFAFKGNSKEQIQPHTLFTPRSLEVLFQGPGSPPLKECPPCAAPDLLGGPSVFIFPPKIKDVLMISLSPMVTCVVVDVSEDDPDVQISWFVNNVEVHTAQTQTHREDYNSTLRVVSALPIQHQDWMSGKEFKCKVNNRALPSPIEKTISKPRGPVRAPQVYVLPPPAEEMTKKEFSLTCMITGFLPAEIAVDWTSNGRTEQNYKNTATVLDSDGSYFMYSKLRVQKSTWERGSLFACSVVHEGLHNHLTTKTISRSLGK

T3: Cynomolgus monkey cKIT D1-5 (cynomolgus monkey, UniProt P10721 26-524 (human entry))
T3 construct: also called cyno cKIT ECD
T3 chain: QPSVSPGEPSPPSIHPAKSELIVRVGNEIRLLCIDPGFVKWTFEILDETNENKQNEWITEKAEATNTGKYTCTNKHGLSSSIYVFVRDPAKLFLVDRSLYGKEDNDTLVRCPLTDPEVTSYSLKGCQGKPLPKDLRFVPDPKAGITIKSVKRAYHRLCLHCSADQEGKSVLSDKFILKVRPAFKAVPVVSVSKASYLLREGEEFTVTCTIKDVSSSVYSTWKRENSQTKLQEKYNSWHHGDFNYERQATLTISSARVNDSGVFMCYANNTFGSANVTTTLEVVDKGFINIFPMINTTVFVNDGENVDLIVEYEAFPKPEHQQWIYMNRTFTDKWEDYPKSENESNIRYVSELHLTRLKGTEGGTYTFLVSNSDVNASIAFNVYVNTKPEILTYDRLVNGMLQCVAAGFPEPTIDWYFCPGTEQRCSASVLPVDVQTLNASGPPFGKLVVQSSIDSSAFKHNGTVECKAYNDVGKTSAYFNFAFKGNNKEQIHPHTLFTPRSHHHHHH

B1: J3: Anti-cKIT Fab′3 conjugated to Compound (1), DAR 4 (Fab, V domains shown)
VH: QVQLVQSGAEVKKPGSSVKVSCKASGGTFSSYAISWVRQAPGQGLEWMGTIGPFEGQPRYAQKFQGRVTITADESTSTAYMELSSLRSEDTAVYYCARGGYISDFDVWGQGTLVTVSS
VL: DIQMTQSPSSLSASVGDRVTITCRASQSISNYLAWYQQKPGKAPKLLIYDASSLQSGVPSRFSGSGSGTDFTLTISSLQPEDFATYYCQQYYYESITFGQGTKVEIKR
modifications: Compound (1) on native cysteine LC-214C (EU); Compound (1) on native cysteines HC-220C-226C-229C (EU)
B2: J14: Anti-cKIT Fab′1 conjugated to mc-MMAF, DAR 4 (Fab, V domains shown)
VH: B1 VH with T50V, G52F, F54A, Q57A, R59G
VL: B1 VL
modifications: mc-MMAF on native cysteine LC-214C (EU); mc-MMAF on native cysteines HC-220C-226C-229C (EU)
B3: J15: Anti-cKIT Fab′1 conjugated to Compound (5), DAR 4 (Fab, V domains shown)
VH: B1 VH with T50V, G52F, F54A, Q57A, R59G
VL: B1 VL
modifications: Compound (5) on native cysteine LC-214C (EU); Compound (5) on native cysteines HC-220C-226C-229C (EU)
B4: J20: Anti-cKIT Fab′3 conjugated to mc-MMAF, DAR 4 (Fab, V domains shown)
VH: B1 VH
VL: B1 VL
modifications: mc-MMAF on native cysteine LC-214C (EU); mc-MMAF on native cysteines HC-220C-226C-229C (EU)
B5: J17: Anti-cKIT Fab′2 conjugated to mc-MMAF, DAR 4 (Fab, V domains shown)
VH: QVQLVQSGAEVKKPGSSVKVSCKASGGTFSSHALSWVRQAPGQGLEWMGGIIPSFGTADYAQKFQGRVTITADESTSTAYMELSSLRSEDTAVYYCARGLYDFDYWGQGTLVTVSS
VL: B1 VL with S28D, N31Q, Y32D, T85V, E94L, S95P, I96S
modifications: mc-MMAF on native cysteine LC-214C (EU); mc-MMAF on native cysteines HC-220C-226C-229C (EU)
B6: J22: Anti-cKIT Fab′3 conjugated to Compound (2), DAR 4 (Fab, V domains shown)
VH: B1 VH
VL: B1 VL
modifications: Compound (2) on native cysteine LC-214C (EU); Compound (2) on native cysteines HC-220C-226C-229C (EU)
B7: J16: Anti-cKIT Fab′1 conjugated to Compound (2), DAR 4 (Fab, V domains shown)
VH: B1 VH with T50V, G52F, F54A, Q57A, R59G
VL: B1 VL
modifications: Compound (2) on native cysteine LC-214C (EU); Compound (2) on native cysteines HC-220C-226C-229C (EU)
B8: J1: Anti-cKIT Fab′1 conjugated to Compound (1), DAR 4 (Fab, V domains shown)
VH: B1 VH with T50V, G52F, F54A, Q57A, R59G
VL: B1 VL
modifications: Compound (1) on native cysteine LC-214C (EU); Compound (1) on native cysteines HC-220C-226C-229C (EU)
B9: J21: Anti-cKIT Fab′3 conjugated to Compound (5), DAR 4 (Fab, V domains shown)
VH: B1 VH
VL: B1 VL
modifications: Compound (5) on native cysteine LC-214C (EU); Compound (5) on native cysteines HC-220C-226C-229C (EU)
B10: J2: Anti-cKIT Fab′2 conjugated to Compound (1), DAR 4 (Fab, V domains shown)
VH: B5 VH
VL: B1 VL with S28D, N31Q, Y32D, T85V, E94L, S95P, I96S
modifications: Compound (1) on native cysteine LC-214C (EU); Compound (1) on native cysteines HC-220C-226C-229C (EU)
B11: J19: Anti-cKIT Fab′2 conjugated to Compound (2), DAR 4 (Fab, V domains shown)
VH: B5 VH
VL: B1 VL with S28D, N31Q, Y32D, T85V, E94L, S95P, I96S
modifications: Compound (2) on native cysteine LC-214C (EU); Compound (2) on native cysteines HC-220C-226C-229C (EU)
B12: J18: Anti-cKIT Fab′2 conjugated to Compound (5), DAR 4 (Fab, V domains shown)
VH: B5 VH
VL: B1 VL with S28D, N31Q, Y32D, T85V, E94L, S95P, I96S
modifications: Compound (5) on native cysteine LC-214C (EU); Compound (5) on native cysteines HC-220C-226C-229C (EU)
B13: J4: Anti-cKIT Fab′4 conjugated to Compound (1), DAR 4 (Fab, V domains shown)
VH: QVQLQQSGPGLVKPSQTLSLTCAISGDSVSTNSAAWNWIRQSPSRGLEWLGRIYYRSQWLNDYAVSVKSRITINPDTSKNQFSLQLNSVTPEDTAVYYCARQLTYPYTVYHKALDVWGQGTLVTVSS
VL: DIELTQPPSVSVSPGQTASITCSGDNLGDQYVSWYQQKPGQAPVLVIYDDTDRPSGIPERFSGSNSGNTATLTISGTQAEDEADYYCQSTDSKSVVFGGGTKLTVLG
modifications: Compound (1) on native cysteine LC-214C (EU); Compound (1) on native cysteines HC-220C-226C-229C (EU)
B14: J5: Anti-cKIT Fab′5 conjugated to Compound (1), DAR 4 (Fab, V domains shown)
VH: QVQLVQSGAEVKKPGESLKISCKGSGYSFTNYWIAWVRQMPGKGLEWMGIIYPSNSYTLYSPSFQGQVTISADKSISTAYLQWSSLKASDTAMYYCARVPPGGSISYPAFDHWGQGTLVTVSS
VL: DIELTQPPSVSVSPGQTASITCSGDNIGSIYASWYQQKPGQAPVLVIYRDNKRPSGIPERFSGSNSGNTATLTISGTQAEDEADYYCSVTDMEQHSVFGGGTKLTVLG
modifications: Compound (1) on native cysteine LC-214C (EU); Compound (1) on native cysteines HC-220C-226C-229C (EU)
B15: Anti-cKIT Ab3 (antibody, human IgG1, kappa, V domains shown)
VH: B1 VH
VL: B1 VL
notes: Full-length human IgG1, kappa light chain; also called IgG control for J3

Target: Human cKIT on human mobilized peripheral blood hematopoietic stem cells (human, UniProt P10721 26-976)
Experiment: cell-based or functional assay

Binder	EC50 (ng/ml), cell viability after 7 days, Human CD34+ cells	EC50 (ng/ml), cell viability after 7 days, Human CD90+ cells	EC50 (ng/ml), cell viability after 7 days, Human total nucleated cells
B1	8 ng/mL	12 ng/mL	45 ng/mL
B2	10 ng/mL	11 ng/mL	7 ng/mL
B3	5 ng/mL	1 ng/mL	6 ng/mL
B4	25 ng/mL	72 ng/mL	20 ng/mL
B5	16 ng/mL	37 ng/mL	12 ng/mL
B6	10 ng/mL	17 ng/mL	8 ng/mL
B7	7 ng/mL	9 ng/mL	6 ng/mL
B8	11 ng/mL	13 ng/mL	48 ng/mL
B9	88 ng/mL	22 ng/mL	154 ng/mL
B10	11 ng/mL	16 ng/mL	58 ng/mL
B11	16 ng/mL	23 ng/mL	14 ng/mL
B12	11 ng/mL	3 ng/mL	15 ng/mL

Target: Mouse cKIT on C57BL/6J bone marrow cells (mouse, UniProt P05532 25-979)
Experiment: cell-based or functional assay

Binder	EC50 (ng/ml), cell viability after 7 days, Mouse CD45+ cells	EC50 (ng/ml), cell viability after 7 days, Mouse cKIT+ cells	EC50 (ng/ml), cell viability after 7 days, Mouse total nucleated cells
B13	3800 ng/mL	8 ng/mL	3800 ng/mL
B14	210 ng/mL	120 ng/mL	210 ng/mL

Target: T1, Mouse cKIT ECD, C-terminal 6x His (Sino …)
Experiment: cross reactivity, Table 6 (Example 4: Biacore SPR, antibody captured by anti-human Fc, cKIT ECD in solution)

Binder	binding result
B15	no binding

Target: T2, Rat cKIT D1-5, C-terminal mFc
Experiment: as above

Binder	binding result
B15	no binding

Target: T3, Cynomolgus monkey cKIT D1-5
Experiment: 'in SET' by the column head; Example 4 describes Biacore SPR (antibody captured by anti-human Fc, cKIT ECD in solution)

Binder	Kd
B15	0.052 nM

— patent publication US20190321483A1 (Novartis, published 2019)
